Experimental data reported in patent US20210269552A1 (GO THERAPEUTICS, published 2021).
Numbering of substitutions follows the chain as printed. Blank lines part the entries; values can stand above or below the molecule they belong to. No end group written: not given here.

Columns and labels:
[1] = molecular target: T1, MUC1 alanine library glycopeptide 8 (human, GalNAc-Serine / GalNAc-Threonine at the bold underlined positions of Table 10A (marking not preserved); the Ser-GalNAc at position 20 is replaced by alanine); assay: ELISA, peptide coated at 0.25 µg/ml, antibody supernatant; OD mutant peptide / OD wild type glycopeptide (SEQ ID NO:99)
T1 construct: Position 20 (Ser-GalNAc) replaced by alanine
T1 peptide: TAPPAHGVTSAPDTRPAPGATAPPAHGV
Experimental: (§1) Glycopeptides and relevant controls were diluted to 0.25 μg/ml in 0.2 M bicarbonate buffer pH 9.8 and 100 μl was plated onto each well of a high binding ELISA plate. Plates were then incubated overnight at 4° C. After discarding the coating buffer, the plate was blocked with 300 μl per well of blocking buffer (2.5% BSA in 1×PBS) for 1 hr at room temperature. Blocking buffer was then discarded, and 100 μl per well of antibody supernatant for each of 5E5, 1AG, and 4AG (diluted in blocking buffer) was added and incubated for 1 hr at room temperature. Antibody supernatant dilutions were previously optimized for each antibody (data not shown). Biotinylated Villa Villosa lectin (100 μl per well of 1 μg/ml in blocking buffer) was added to the plate as a control to detect the presence of GalNAc modified residues on the peptide. Plates were washed 3 times with 300 μl per well 1×TBS/0.05% Tween-20 (TBST). The secondary antibody Goat-anti mouse IgG (H+L)-HRP was diluted 1/5000 in blocking buffer and 100 μl of the diluted antibody was added per well and incubated on the plate for 1 hr at room temperature. Streptavidin-HRP was diluted 1/3000 in blocking buffer and 100 μl of the diluted streptavidin-HRP was added to wells containing the biotinylated lectin. Following secondary incubation, the plate was washed 4 times with 300 μl of TBST per well and then developed with 75 μl of room temperature 1-Step TMB substrate. After 1 minute, color development was stopped using 75 μl 2 N sulfuric acid. The plate was then read at 450 nm using a plate reader (Molecular Device SpectraMax i3).

[2] = molecular target: T2, MUC1 alanine library glycopeptide 9 (human, GalNAc-Serine / GalNAc-Threonine at the bold underlined positions of Table 10A (marking not preserved); the Thr-GalNAc at position 21 is replaced by alanine); assay: as above
T2 construct: Position 21 (Thr-GalNAc) replaced by alanine
T2 peptide: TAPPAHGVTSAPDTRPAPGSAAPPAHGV
Experimental: as §1

[3] = molecular target: T3, 2 (GalNAc-Ser / GalNAc-Thr at the positions marked bold and underlined in Table 10A (the marking is lost in the text as given)); assay: alanine-scan ELISA: peptides coated at 0.25 ug/ml, antibody supernatant, anti-mouse IgG-HRP; OD450 divided by OD450 on the wild-type peptide
T3 construct: also called MUC1 alanine library glycopeptide 2; peptide 2
T3 peptide: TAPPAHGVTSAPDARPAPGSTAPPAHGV
Experimental: as §1

[4] = molecular target: T4, Negative (none (non-glycosylated)); assay: as above
T4 construct: also called Negative Control
T4 peptide: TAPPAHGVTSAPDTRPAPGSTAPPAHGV
Experimental: as §1

[5] = molecular target: T5, MUC1 alanine library glycopeptide 12 (human, GalNAc-Serine / GalNAc-Threonine at the bold underlined positions of Table 10A (marking not preserved)); assay: as above
T5 peptide: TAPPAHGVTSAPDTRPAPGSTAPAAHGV
Experimental: as §1

[6] = molecular target: T6, MUC1 alanine library glycopeptide 3 (human, GalNAc-Serine / GalNAc-Threonine at the bold underlined positions of Table 10A (marking not preserved)); assay: as above
T6 construct: Position 15 (R) replaced by alanine
T6 peptide: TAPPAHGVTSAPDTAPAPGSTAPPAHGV
Experimental: as §1

[7] = molecular target: T7, MUC1 alanine library glycopeptide 4 (human, GalNAc-Serine / GalNAc-Threonine at the bold underlined positions of Table 10A (marking not preserved)); assay: as above
T7 construct: Position 16 (P) replaced by alanine
T7 peptide: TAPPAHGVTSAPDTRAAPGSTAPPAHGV
Experimental: as §1

[8] = molecular target: T1, MUC1 alanine library glycopeptide 8; assay: as above
Experimental: as §1

[9] = molecular target: T8, 1 (GalNAc-Ser / GalNAc-Thr at the positions marked bold and underlined in Table 10A (the marking is lost in the text as given)); assay: as above
T8 construct: also called MUC1 alanine library glycopeptide 1; peptide 1
T8 peptide: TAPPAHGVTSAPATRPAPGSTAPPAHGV
Experimental: as §1

[10] = molecular target: T9, Irrelevant Glycopeptide (GalNAc-Ser / GalNAc-Thr at the positions marked bold and underlined in Table 10B (the marking is lost in the text as given)); assay: as above
T9 peptide: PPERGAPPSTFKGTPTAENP
Experimental: as §1

[11] = molecular target: T10, Glycosylated peptide RPAPGSTAPPAHGVT (Table 5, SPR) (human, also: GalNAc at sites not preserved); assay: SPR, Biacore T200, antibody on chip, peptide injected in single-cycle 6.25-100 nM, 25 C
T10 construct: Printed without biotin
T10 peptide: RPAPGSTAPPAHGVT
Experimental: Binding of the 1AG and 4AG antibodies to one glycysolated and one non-glycosylated peptide (Table 5) was assessed by surface plasmon resonance (SPR).
All SPR experiments were performed on a Biacore T200 with a CM5 sensor chip with 10,000 RU anti-mouse antibody on each channel (GE Healthcare) at 25° C. with HBS-P+ as running and sample buffer (10 mM HEPES pH 7.4, 150 mM NaCl, 0.05% Tween 20, and 1 mg/ml BSA) and 10 mM glycine, pH 1.7 as regeneration buffer.
The 1AG and 4AG antibodies were immobilized as a 30 μg/mL solution in 10 mM sodium acetate, pH 5.0 using standard amine coupling chemistry (EDC/NHS activation). Antibody capture was performed using a 10× dilution into reaction buffer for 7 to 10 minutes at 5 μL/min. Immobilization levels of 600 to 1000 RU were used. […] The dissociation was monitored for 5 minutes to 30 minutes.

[12] = molecular target: T11, BSA (bovine, UniProt P02769); assay: indirect ELISA on BSA blocked control wells, hybridoma supernatant, anti-mouse IgG-HRP, OD 450 nm
T11 construct: commercial protein in control wells; also called bovine serum albumin
Experimental: (§2) ELISA plates were coated with MUC1 peptides titrated in 0.2 M bicarbonate buffer, pH 9.4 over night in concentrations ranging from 0.08 μg/ml to 10 μg/ml. BSA was used as a control/measure of background. The plates were then blocked with SuperBlock™ (Thermo Fisher) for 1 hr at room temperature. After plate washing, 1AG and 4AG hybridoma supernatants were incubated on the ELISA plate for 1 hour. The plates were then washed, and then incubated with secondary antibody (1/3000 Goat Anti-mouse IgG (H+L) HRP (abcam 62-6520)) for 1 hour. The plate was then washed and color was developed with 1-Step™ Ultra TMB (Thermo Fisher) for 2 minutes. Color development was then stopped with 2 N Sulfuric Acid. Absorbance at 450 nm was then measured.

[13] = molecular target: T11, BSA; assay: indirect ELISA, BSA control wells drawn on the peptide axis, hybridoma supernatant, anti-mouse IgG-HRP, OD 450 nm
Experimental: as §2

[14] = molecular target: T12, MUC1 alanine library glycopeptide 10 (human, GalNAc-Serine / GalNAc-Threonine at the bold underlined positions of Table 10A (marking not preserved)); assay: alanine-scan ELISA: peptides coated at 0.25 ug/ml, antibody supernatant, anti-mouse IgG-HRP; OD450 divided by OD450 on the wild-type peptide
T12 construct: Position 22 (A) replaced by glycine
T12 peptide: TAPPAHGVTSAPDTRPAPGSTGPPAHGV
Experimental: as §1

[15] = molecular target: T13, MUC1 alanine library glycopeptide 6 (human, GalNAc-Serine / GalNAc-Threonine at the bold underlined positions of Table 10A (marking not preserved)); assay: as above
T13 construct: Position 18 (P) replaced by alanine
T13 peptide: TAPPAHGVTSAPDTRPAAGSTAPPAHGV
Experimental: as §1

[16] = molecular target: T14, MUC1 alanine library glycopeptide 11 (human, GalNAc-Serine / GalNAc-Threonine at the bold underlined positions of Table 10A (marking not preserved)); assay: as above
T14 construct: Position 23 (P) replaced by alanine
T14 peptide: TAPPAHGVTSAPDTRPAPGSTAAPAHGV
Experimental: as §1

T11 sequence (P02769 25-607 limits assumed): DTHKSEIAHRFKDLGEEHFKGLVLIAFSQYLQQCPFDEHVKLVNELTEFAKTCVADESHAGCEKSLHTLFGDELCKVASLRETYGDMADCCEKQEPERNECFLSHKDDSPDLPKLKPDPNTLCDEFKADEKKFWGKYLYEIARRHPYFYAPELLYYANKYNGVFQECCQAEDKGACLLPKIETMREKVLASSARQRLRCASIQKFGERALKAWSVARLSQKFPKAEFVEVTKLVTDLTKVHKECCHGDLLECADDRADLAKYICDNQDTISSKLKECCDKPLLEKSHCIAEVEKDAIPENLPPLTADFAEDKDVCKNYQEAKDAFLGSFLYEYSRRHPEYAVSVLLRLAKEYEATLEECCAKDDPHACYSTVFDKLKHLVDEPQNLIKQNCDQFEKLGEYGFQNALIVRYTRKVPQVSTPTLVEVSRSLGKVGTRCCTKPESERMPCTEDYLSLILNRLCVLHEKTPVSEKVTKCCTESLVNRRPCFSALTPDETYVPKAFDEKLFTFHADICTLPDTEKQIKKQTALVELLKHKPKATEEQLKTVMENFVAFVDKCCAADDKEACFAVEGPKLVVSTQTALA

- percent binding compared to the wild type peptide [1]: 18%
- percent binding compared to the wild type peptide [2]: 2.93%
Molecule: 5E5 (antibody)

- binding result [3]: binds
- binding result [5]: binds
- binding result [6]: binds
- binding result [7]: binds
- binding result [9]: binds
- Kd [11]: 37.3 nM
- koff [11]: 0.007 s⁻¹
- kon [11]: 179000 M⁻¹ s⁻¹
- percent binding compared to the wild type peptide [1]: 2.23%
- percent binding compared to the wild type peptide [2]: 6.07%
- binding result [12]: no binding
B1: 1AG (antibody, V domains shown)
VH: EVKLLESGGGLVQPGGSLKLSCAASGFDFSRDWMSWVRQAPGKGLEWIGEINPDSSTKNYTPSLKDKFIISRDNAKNTLFLQMSSVRSEDTALYYCATSHYYGLFGYWGQGTLVTVSA
VL: DIVLTQSPASLTVSLGQRATISCRASKSVSTSGYSYMHWYQQKPGQPPKLLIYLASYLESGVPARFSGSGSGTDFTLNIHPVEEEDAATYYCQHSRELPRTFGGGTKLEIK
notes: Mouse monoclonal antibody from Balb/c hybridoma; Used as hybridoma supernatant in the ELISAs; also called mAb 1AG; antibody 1AG
- binding result [4]: no binding (tested: 0.25 ug/ml coating peptide)
- binding result [8]: no binding (tested: 0.25 ug/ml coating peptide)
- binding result [10]: no binding (tested: 0.25 ug/ml coating peptide)

- binding result [3]: binds
- binding result [5]: binds
- binding result [6]: binds
- binding result [14]: binds
- binding result [7]: binds
- binding result [9]: binds
- binding result [15]: binds
- binding result [16]: binds
- Kd [11]: 3.4 nM
- koff [11]: 0.00093 s⁻¹
- kon [11]: 272000 M⁻¹ s⁻¹
- percent binding compared to the wild type peptide [1]: 1.63%
- percent binding compared to the wild type peptide [2]: 14.6%
B2: 4AG (antibody, V domains shown)
VH: EVKLLESGGGLVQPGGSLKLSCVASGFDFSRYWMSWVRQAPGKGPEWIGEINPESNTMNYSPSLKEKFIISRDTAKNMLYLQMSKVRSEDTALYYCATSHHYGLFDYWGQGTLVTVSA
VL: B1 VL with T12A, S35N, M37I, Y91F, I110F
notes: Mouse monoclonal antibody from Balb/c hybridoma; Used as hybridoma supernatant in the ELISAs; also called mAb 4AG; antibody 4AG
- binding result [13]: no binding (tested: 10 ug/ml on the peptide axis)
- binding result [4]: no binding (tested: 0.25 ug/ml coating peptide)
- binding result [8]: no binding (tested: 0.25 ug/ml coating peptide)
- binding result [10]: no binding (tested: 0.25 ug/ml coating peptide)
